Assays:
CpGSTD1 = CpGSTD1 (Culex pipiens, UniProt H9M8E3); experiment: spectrophotometric enzyme kinetics; format: biochemical
[1] = tested on: O=[N+]([O-])c1ccc(Cl)c(Cl)c1; experiment: spectrophotometric enzyme kinetics; format: biochemical, Culex pipiens; conditions: 30.0 °C
[2] = substrate: Cc1cc(=O)oc2ccc(OC(=O)[C@H]3[C@@H](/C=C(\Cl)C(F)(F)F)C3(C)C)cc12; experiment: fluorescent enzyme kinetics; format: biochemical, Culex pipiens; conditions: GSH; 30.0 °C
[3] = substrate: Cc1cc(=O)oc2ccc(OC(=O)[C@H]3[C@@H](C=C(Cl)Cl)C3(C)C)cc12; experiment: fluorescent enzyme kinetics; format: biochemical, Culex pipiens; conditions: GSH; 30.0 °C

O=[N+]([O-])c1ccc(Cl)c([N+](=O)[O-])c1 [CDNB, 1-chloro-2,4-dinitrobenzene]
Km (CpGSTD1): 240 ± 18 µM

CpGSTD1 (Culex pipiens)
Km [1]: 691 ± 106 µM | Vmax [1]: 2.32 ± 0.152 µmol/min/mg | kcat [1]: 0.92 s⁻¹ | kcat/Km [1]: 1300 M⁻¹ s⁻¹

B1: CpGSTD1 (Culex pipiens) (protein)
chain: MDFYYLPGSAPCRAVQMTAAAVGVELNLKLTNLMAGEHMKPEFLKLNPQHTIPTLVDNGFSLWESRAIQIYLVEKYGKDDSLYPKDPQKRALVNQRLFFDMGVFYQRFGDYWYPQIFAKQPANADNEKKMQEAVAFLNTFLEGHQYAAGDQLTIADLSLAASAATYEVAGFDFSKYPNVQAWLERCKKNAPGYDLNQAGADEFNAKFLGGK
Km [2]: 10.0 ± 0.7 µM | Vmax [2]: 0.487 µmol/min/mg | kcat [2]: 0.19 s⁻¹ | kcat/Km [2]: 19000 M⁻¹ s⁻¹ | Km [3]: 9.0 ± 0.8 µM | Vmax [3]: 0.298 µmol/min/mg | kcat [3]: 0.12 s⁻¹ | kcat/Km [3]: 13000 M⁻¹ s⁻¹
